This is an account of results in patent publication US7153676B1, “Transacylases of the paclitaxel biosynthetic pathway” (priority 1999, dated 2006).

Substrate in the data set: CC(=O)SCCNC(=O)CCNC(=O)[C@H](O)C(C)(C)COP(=O)(O)OP(=O)(O)OC[C@H]1O[C@@H](n2cnc3c(N)ncnc32)[C@H](O)[C@@H]1OP(=O)(O)O
In words: purified protein, by the assay type. To be noted: other: Lineweaver-Burk analysis, partially purified recombinant TAX6.

B1: 10-deacetylbaccatin III-10-O-acetyl transferase (TAX6) (Taxus cuspidata) (protein)
chain: MAGSTEFVVRSLERVMVAPSQPSPKAFLQLSTLDNLPGVRENIFNTLLVYNASDRVSVDPAKVIRQALSKVLVYYSPFAGRLRKKENGDLEVECTGEGALFVEAMADTDLSVLGDLDDYSPSLEQLLFCLPPDTDIEDIHPLVVQVTRFTCGGFVVGVSFCHGICDGLGAGQFLIAMGEMARGEIKPSSEPIWKRELLKPEDPLYRFQYYHFQLICPPSTFGKIVQGSLVITSETINCIKQCLREESKEFCSAFEVVSALAWIARTRALQIPHSENVKLIFAMDMRKLFNPPLSKGYYGNFVGTVCAMDNVKDLLSGSLLRVVRIIKKAKVSLNEHFTSTIVTPRSGSDESINYENIVGFGDRRRLGFDEVDFGWGHADNVSLVQHGLKDVSVVQSYFLFIRPPKNNPDGIKILSFMPPSIVKSFKFEMETMTNKYVTKP
For the protein B1, the Michaelis constant (Km) – broadly, the concentration of substrate that gives half-maximal velocity – stood at 8 µM.
